Biological target: RSV prefusion F (PR-DM) (Human respiratory syncytial virus A, …, stabilised)
Experiment: cryo-EM structure

| Binder | stoichiometry N |
| --- | --- |
| RSV-2245 Fab (Fab, V domains shown) VH: QVQLVQSGAEVKKPGASVKVSCKASGYSFSSFGVSWVRQAPGQGLEWLGWISAYNGNTDYAQKVQGRLTMTTDTSTNTAYMELRNLRSDDTAVYYCARDPPASAAAMFDYWGQGTLVTVSS VL: not shown | 3 copies of the Fab per F trimer |
| RSV-3301 Fab (Fab, V domains shown) VH: QVQLVESGPTLVKPTQTLTLTCSFSGFSLSTRGVGVGWVRQPPGKALECLGFTYWDGDEYYSPSLRNRVTISKDTSKNQVVLTLTNMDPVDTATYFCVHSDLYDRGGYYLYYFDYWGQGTLVTVSS VL: DIRVTQSPSSLSASVGDRVTITCRASQTIASYVNWYQQKPGRAPELLIYAASILQSGVPSRFSGRGSGTDFTLTINGLQPEDFATYYCQQSYSSPWTFGQGTKVEIK | 3 copies of the Fab per F trimer |

— article PMC12684077 (Cell, 2025)
